Source: the supplement of paper PMC12764529
± gives the half width of the 95% confidence interval.

Key:
[1] = folding stability dG unfold from chymotrypsin proteolysis; higher = more stable
Description: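 Folding stability of de novo designed mini-proteins (<80 aa, no Cys; designed by TrROS, TrMRF, ProteinMPNN and the joint model) was measured by cDNA display proteolysis with trypsin and chymotrypsin. Each protease was used at 11 concentrations in a threefold dilution series plus a no-protease condition. K50 was inferred by Bayesian fitting of sequencing counts, and dG unfold was derived against a sequence-predicted unfolded-state K50 (Tsuboyama et al. method). Sequences shown include variable-length N-terminal GS-type padding (SAGGSAGG...) inside a display construct carrying a PA tag. Rows were kept only if the AF2 dimer inter-PAE was >15, to exclude likely homo-oligomers.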

[2] = folding stability dG unfold (combined trypsin and chymotrypsin); higher = more stable
Summary of the method: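 K50 was inferred by Bayesian fitting of sequencing counts obtained after protease digestion of designed mini-proteins. Unfolding free energy was derived by comparison with a sequence-predicted unfolded-state K50 and a shared folded-state K50, for each protease or both combined. The mini-proteins were under 80 residues, had no cysteine, were carried in a PA-tagged cDNA display construct, and were kept only if AlphaFold2 dimer inter-PAE exceeded 15.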

Row | Sequence | folding stability dG unfold [1] [kcal/mol] | folding stability dG unfold [2] [kcal/mol]
1 | SAGGSAMIEVRTVAGEPVEVTPIPEDEVLVARTPGGRKAPFLLGEDVLRELVVEPDAPPDLFIVPGSAGGSA [r15_709_TrMRF] | -0.141 ± 0.093 | -0.617 ± 0.13
2 | SAGPPEPREIEIPVEGSWSDLRNQVKNVAEEAQPKGEPVQIKIEWGGRPRKYTLNDIDDVPPWMKVEIYSAG [r5_626_TrROS] | -0.0343 ± 0.48 | -0.449 ± 0.74
3 | SAGGSAGGSGEPRTVLVEVLYDDKPVLIPVTADSEEALPEVARAAIEPLAEKYPHVEIPLPTESAGGSAGGS [r12_230_TrMRF] | 0.164 ± 0.11 | -0.66 ± 0.52
4 | SAGGSAGGSAGDGDTMPFIMIHPDYLTINTWKFNPDGGLEIKSVKTIPLPPPKPSPDNKKSAGGSAGGSAGG [r11_843_TrROS] | -0.466 ± 0.45 | -0.48 ± 0.21
5 | SAGGSAGGSGTSTSSSGPSTVTITLHTDSPVTLTVPPETTEELAAELKARGYNLEVKVTPAPASAGGSAGGS [r20_124_JUSTAS] | 0.161 ± 0.12 | -0.195 ± 0.11
6 | SMKVLEGEEEAKKLAEEEGVPVIPVPADVSLEEIKKRIKETPGFPPDTVVATVIPKEPGRTTVIVLPLGKSA [r9_314_JUSTAS] | 0.474 ± 0.035 | 0.0112 ± 0.1
7 | SAGGSAGGSAGKKKIHVHQYPDGNYHIRVPNGKSYHFPPEDADELVEELGIDEVEIHPMDSAGGSAGGSAGG [r11_312_TrROS] | 0.0552 ± 0.089 | -0.407 ± 0.16
8 | SAGGEITIVIEGMSEEEREKALEEVRNKIKELKEKHPEKKITIVVDTPEAKKVAEELKKEGYEVEILSAGGS [r16_450_TrROS_Hall] | 2.06 ± 0.15 | 2.86 ± 0.43
9 | SAGGSAGGSAGGSEEKPLVIPIPAHPDIPAEVVRKAVEPLTGVPIEAVLGDEDTLLVVGSAGGSAGGSAGGS [r4_469_TrMRF] | 0.661 ± 0.022 | 0.187 ± 0.077
10 | SAGGSAGGSSGLTLLEETEISPGPPVPAIPATLPVKVDGKTVPLPITLTPEELAALRAELLRRSAGGSAGGS [r20_148_JUSTAS] | 0.893 ± 0.088 | 0.364 ± 0.093
11 | SAGGSAGGSAGMRITVEPDRVVVHPPGGEEIVMPAPEWGEEEVLALAEEHPDVEVEPVPPSAGGSAGGSAGG [r17_545_JUSTAS] | -1.01 ± 0.37 | < -1
12 | SAGGMVLEKKSPSGTTTKTVVEETPDELYVKTTTLKGKTPTTSESVIPAPPPPPLPFPSGRPEELQLLSAGG [r13_691_JUSTAS] | -0.632 ± 0.45 | < -1
13 | SAGGSAGGSAGGSGPEELAAAARAAHPELGAPVRVEVTYTPEAGEFPVRVFLPEDGAALSAGGSAGGSAGGS [r4_312_JUSTAS] | -0.335 ± 0.14 | < -1
14 | SAGGSAGGSAGGTVVPEKEARELARKVAEKGEPIEVEIGDPGPKKPRTVLITPEDLEERSAGGSAGGSAGGS [r10_779_JUSTAS] | -0.219 ± 0.18 | < -1
15 | SAGGGLARELFEAENLPVVVEEEERDGKPVLRLVVDAGDKPLVFESDGEDVERAVREAARELGLPGLSAGGS [r8_226_TrMRF] | 0.674 ± 0.085 | 0.337 ± 0.15
16 | SAGGSAGGSAGPPPMEPIFTFTNPKEPVTIYRSKDPGNYHIYDPPNGKERTIPPNDPNFFSAGGSAGGSAGG [r11_1007_TrROS] | -0.0661 ± 0.55 | < -1
17 | SAGGSAGGSTITGRFESPEGINELANEFPGVEIFEDPENNWIYVEIEIKPPPPPPPEDQKNNKSAGGSAGGS [r20_191_TrROS] | 0.916 ± 0.078 | 0.35 ± 0.3
18 | SAGPLVITVEETDGTVTITIYDAETGEKIAEFTFPKGAEVTIEDGYITIRNKETGETFVFKLPDGVKPSAGG [r19_4_TrROS_Hall] | 6.34 ± 0.27 | > 6
19 | SAGGGPGSVSPQPFEEDYTLPDPGEKIRVKVTAYTLPDGSVVERAVSPEPEREFVFTRDGETVTVTPESAGG [r13_117_JUSTAS] | 0.612 ± 0.088 | 0.116 ± 0.12
20 | SAGGSAGGSAGGSSSSSGTTLVPVTITTETFLNDDTPVTTVTTVLKTLAPDETLADLLASAGGSAGGSAGGS [r4_283_JUSTAS] | -0.292 ± 0.11 | -0.519 ± 0.26
21 | SAGGGENAPKPIVEPKLVSTFLIDVEPDTYTPEEIAELFKEATGYEIEEVEVEELPDDNTVLVTVVAGSAGG [r13_457_TrMRF] | 0.472 ± 0.24 | 0.0888 ± 0.22
22 | SAGGSAGGSSTLSVELPDFTGSAADVLAALRAAFPDPALVLDGVEVRPLGADRPGWRVELAVASAGGSAGGS [r12_348_JUSTAS] | 0.958 ± 0.091 | 0.499 ± 0.078
23 | SAGGSAGGSAGDVEVTEVTDANGNLTLTVKAKPATVTPNETVTVTLTVVNDDGETKTFELSAGGSAGGSAGG [r17_293_TrROS_Hall] | -0.186 ± 0.4 | -0.493 ± 0.41
24 | SAGGSAGGSAGKKKITIDYEEIREKFGLPPDDIDNMSMSRVMNYAKPLAKEGKIDEIEISSAGGSAGGSAGG [r11_80_TrROS] | -0.291 ± 0.53 | < -1

Row | Sequence | folding stability dG unfold [1] [kcal/mol] | folding stability dG unfold [2] [kcal/mol]
25 | SAGGMPDRVRPFPFRAPVLRLDPPEPEEVEVVAFVFPDNRVLALARSPDPGRVLLAVDDGDRVLVADASAGG [r13_117_TrMRF] | 0.12 ± 0.15 | -0.477 ± 0.19
26 | SAGGSAPPEVVEVPPVELPDYTVSPPRFAPEPTLRERTATPPDGPEFSVTTRIDPETGVPEVVVAASAGGSA [r15_84_JUSTAS] | 0.718 ± 0.017 | 0.211 ± 0.067
27 | SVPVTDETLYPDPSNALPISLVSQLGPDGSSVTTSITLPGRSMTQSVDPSTGRVTGNYPGTGLSSTVTSVPS [r1_125_JUSTAS] | 0.348 ± 0.051 | 0.0698 ± 0.11
28 | SAGGSAGGSKIKSITIDPEAGKVTIEVDKDTPPKPLPSVKTVEEKNDGYTVTFDVKDDEEILLSAGGSAGGS [r20_37_TrMRF] | 0.416 ± 0.086 | -0.39 ± 0.41
29 | SAGGSAGGSAGGAADAKVRLVLRTRTFDAVPGEERELPGDSWVYEVGDKAVALELLADPVSAGGSAGGSAGG [r7_506_TrMRF] | 0.895 ± 0.058 | 0.21 ± 0.083
30 | SAGGSAGGSASSVSSLSEETLPDGKPVLVRKETVYDPKHGLTGLSVTYYTLGGKKLKTEVVSAGGSAGGSAG [r3_154_JUSTAS] | -0.477 ± 0.26 | -0.698 ± 0.22
31 | SAGGSAGGSAGGGMPYPIKTEVEIKKNGPNISTTETVYRPDGTKIETKKYKIPKKELKKKSAGGSAGGSAGG [r7_602_JUSTAS] | 0.154 ± 0.28 | < -1
32 | SAGGTIEEIKEALKKLPEGAVVEVTTENGEKLEFKSLEEIKKATITNENGEKIKITEVKVYPAKKEKSAGGS [r16_680_TrROS_Hall] | 0.569 ± 0.16 | < -1
33 | SAGGSAEKPPIKIEIDTETDPGNGMYEVSIPIRQKNGKPKGTIDIPFNTPQQAEDWLEDLGFDKIESAGGSA [r15_127_TrROS] | -0.865 ± 0.61 | < -1
34 | SPKWKPIAEIPFKNGDPDEFIDKLKDAFPPDPPVQITFNGPDGPPMRIWIDPDEGRIDDIYPGGQIRIIPSA [r9_853_TrROS] | -0.986 ± 0.39 | < -1
35 | SAGGMTITLPKNMTKEELEALAKKLEEETGLKVTIEYNEETNEVTITVEGLSEEEQERIKKLLEEAASAGGS [r16_227_TrROS_Hall] | 3.49 ± 0.34 | > 6
36 | SAGMIVVPLPLSVEEAPAFARELLEAAEAAGLEVTIRVPDEAVAEAVREAAPPDAPVRIEPLEPGEPVESAG [r5_911_JUSTAS] | 0.58 ± 0.054 | 0.128 ± 0.11
37 | SAGGSAGGSAGGSGRVEIELEFKLENGFYVRIKAEIEFEEDGKIRIKVEIELLPEELEESAGGSAGGSAGGS [r4_297_TrROS_Hall] | 3.67 ± 0.34 | 3.89 ± 0.41
38 | SAGGSAGGSGSMSLSESPTSRTLTLTYPDSVVVTEYDPETGPPVTRFVSREDGVPVVYPAELLSAGGSAGGS [r12_632_JUSTAS] | -0.0818 ± 0.1 | -0.414 ± 0.09
39 | SAGSLPPDVTVPIPRRVRLSESDPALLEAARNGEPVYEELPGDVRVTVELRPLPPDELEVTERVYFPAGSAG [r5_223_JUSTAS] | 0.444 ± 0.12 | -0.000299 ± 0.27
40 | SAGGSAGGSAGGKKEREFKFPGAPIQAPVERNPANGKLKIDVEVTGDNPDWAKRLADAFSAGGSAGGSAGGS [r10_582_TrROS] | -0.513 ± 0.56 | < -1
41 | SAGEPNKIKVKVKIRMWMPRKDPDGQQAEPHPMPMTFEYKAPWEDAKNIIDSMPPGMQIDKIDKIEPLSAGG [r19_114_TrROS] | 0.226 ± 0.3 | 0.109 ± 0.29
42 | SAGGSAGGSAGGMLVTETKPLPTPRTVATVVLLSTEEAPLPSGVLVRRETTEVKLVELISAGGSAGGSAGGS [r10_718_JUSTAS] | -0.503 ± 0.61 | < -1
43 | SAGGSAGGSAGGTLIKTSDDTIVIPIGDPEEAEKAAEEIKAKLGDVDLKVEILSPEELRGSAGGSAGGSAGG [r7_645_JUSTAS] | 0.487 ± 0.032 | 0.13 ± 0.14
44 | SAGGSAGGSGYSVSVSEDFSSSPETRTVTTTTTSPSSGPLVTTTTTTTSPIPPRTPAEVAAAASAGGSAGGS [r12_841_JUSTAS] | 0.697 ± 0.029 | 0.327 ± 0.048
45 | SAGGSAGGSAGGSSRVLKGKDTTVVLYPDSVTFYPGSTGTPVVKSISDPEVVEEIKKLLSAGGSAGGSAGGS [r4_353_JUSTAS] | -0.192 ± 0.33 | < -1
46 | SAGGRVKVEIYNPDSGRPMEIEINPGNGTLEIRNPNNGEPVHEFPIPDIKEIEIPFSPNGILIKIEVDSAGG [r13_720_TrROS] | 0.281 ± 0.043 | -0.137 ± 0.33
47 | SAGGSAGGSAGGSAPYALVEVLPGGVVVVAYPDGSRRLVEVERDPSSDLWRVLREEDLPSAGGSAGGSAGGS [r4_247_JUSTAS] | 0.688 ± 0.1 | 0.278 ± 0.068
